# Article PMC9482650, “Quantitative fragmentomics allow affinity mapping of interactomes” (Nature Communications, 2022)
# T1: SNTB1, Q13884
# T1 sequence (Q13884 107-205, limits assumed, looked up): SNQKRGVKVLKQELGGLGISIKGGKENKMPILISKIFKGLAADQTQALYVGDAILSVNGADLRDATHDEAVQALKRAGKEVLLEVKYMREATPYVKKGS
# T2: LNX2_2, Q8N448
# T2 sequence (Q8N448 334-432, limits assumed, looked up): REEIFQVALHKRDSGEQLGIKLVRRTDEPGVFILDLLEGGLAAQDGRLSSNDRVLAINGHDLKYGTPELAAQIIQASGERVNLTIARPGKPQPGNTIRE
# T3: MPDZ_5, O75970
# T3 sequence (O75970 695-796, limits assumed, looked up): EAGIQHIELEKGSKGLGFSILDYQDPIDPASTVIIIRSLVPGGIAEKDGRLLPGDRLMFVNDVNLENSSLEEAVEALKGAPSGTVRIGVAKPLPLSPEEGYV
# T4: GRIP1_2, Q9Y3R0
# T4 sequence (Q9Y3R0 145-248, limits assumed, looked up): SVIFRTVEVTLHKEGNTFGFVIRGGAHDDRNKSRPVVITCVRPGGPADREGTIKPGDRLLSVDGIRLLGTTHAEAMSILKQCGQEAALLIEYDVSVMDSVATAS
# T5: APBA1_2, Q02410
# T5 sequence (Q02410 742-832, limits assumed, looked up): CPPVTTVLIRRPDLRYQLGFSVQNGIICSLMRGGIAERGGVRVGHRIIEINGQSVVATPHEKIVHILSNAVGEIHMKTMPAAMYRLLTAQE
# T6: APBA1_1, Q02410
# T6 sequence (Q02410 651-752, limits assumed, looked up): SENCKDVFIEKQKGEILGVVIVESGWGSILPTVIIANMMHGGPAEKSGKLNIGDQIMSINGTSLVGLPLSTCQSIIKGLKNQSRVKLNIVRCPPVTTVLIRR
# T7: TX1BP3, O14907
# T7 sequence (O14907 10-122, limits assumed, looked up): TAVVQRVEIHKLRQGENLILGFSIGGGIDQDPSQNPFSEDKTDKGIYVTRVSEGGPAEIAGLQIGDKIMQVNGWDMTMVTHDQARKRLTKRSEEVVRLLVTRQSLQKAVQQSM
# T8: APBA3_1, O96018
# T8 sequence (O96018 389-490, limits assumed, looked up): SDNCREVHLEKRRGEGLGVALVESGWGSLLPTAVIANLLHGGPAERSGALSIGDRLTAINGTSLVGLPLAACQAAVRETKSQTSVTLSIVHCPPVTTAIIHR
# T9: MPP2, Q14168
# T9 sequence (Q14168 180-250, limits assumed, looked up): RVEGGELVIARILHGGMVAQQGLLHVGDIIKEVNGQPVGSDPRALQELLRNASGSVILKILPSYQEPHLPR
# T10: DLG3_1, Q92796
# T10 sequence (Q92796 125-227, limits assumed, looked up): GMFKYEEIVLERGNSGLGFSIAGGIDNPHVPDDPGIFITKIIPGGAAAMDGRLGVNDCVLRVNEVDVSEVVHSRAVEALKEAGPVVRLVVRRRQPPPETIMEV
# T11: RADIL, Q96JH8
# T11 sequence (Q96JH8 971-1071, limits assumed, looked up): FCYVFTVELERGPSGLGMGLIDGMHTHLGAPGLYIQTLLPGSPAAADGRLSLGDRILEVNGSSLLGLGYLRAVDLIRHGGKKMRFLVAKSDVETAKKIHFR
# T12: DLG3_2, Q92796
# T12 sequence (Q92796 221-321, limits assumed, looked up): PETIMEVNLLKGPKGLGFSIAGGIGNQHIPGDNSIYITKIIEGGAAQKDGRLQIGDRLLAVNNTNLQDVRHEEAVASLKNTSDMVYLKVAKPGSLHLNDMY
# Experiments:
# Assay in all cases: holdup assay
# Design in all cases: key: below the threshold = too weak to quantify, mostly under pKd 3.1 to 4
# Conditions in all cases: plain residues with an end cap or a label only (N-terminal biotin on a linker: ado-ado)
# [1] = molecular target: T1, SNTB1, Q13884
# [2] = molecular target: TJP1_2, Q07157
# [3] = molecular target: PICK1, Q9NRD5
# [4] = molecular target: MAGI2_4, Q86UL8
# [5] = molecular target: T2, LNX2_2, Q8N448
# [6] = molecular target: MAGI3_2, Q5TCQ9
# [7] = molecular target: Inadl_10, Q8NI35
# [8] = molecular target: DLG4_3, P78352
# [9] = molecular target: LNX1_2, Q8TBB1
# [10] = molecular target: CASK, O14936
# [11] = molecular target: ARHGEF12, Q9NZN5-2
# [12] = molecular target: T3, MPDZ_5, O75970
# [13] = molecular target: T4, GRIP1_2, Q9Y3R0
# [14] = molecular target: T5, APBA1_2, Q02410
# [15] = molecular target: T6, APBA1_1, Q02410
# [16] = molecular target: DLG2_2, Q15700
# [17] = molecular target: DLG1_2, Q12959
# [18] = molecular target: T7, TX1BP3, O14907
# [19] = molecular target: T8, APBA3_1, O96018
# [20] = molecular target: TJP2_1, Q9UDY2
# [21] = molecular target: T9, MPP2, Q14168
# [22] = molecular target: T10, DLG3_1, Q92796
# [23] = molecular target: T11, RADIL, Q96JH8
# [24] = molecular target: PDZRN4_1, Q6ZMN7
# [25] = molecular target: LAP2, Q96RT1
# [26] = molecular target: T12, DLG3_2, Q92796
# LNX1_2, Q8TBB1, sequence (Q8TBB1 371-470): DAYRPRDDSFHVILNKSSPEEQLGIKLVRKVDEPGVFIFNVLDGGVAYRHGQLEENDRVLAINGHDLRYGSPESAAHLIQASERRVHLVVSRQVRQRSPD
# PDZRN4_1, Q6ZMN7, sequence (Q6ZMN7 213-318): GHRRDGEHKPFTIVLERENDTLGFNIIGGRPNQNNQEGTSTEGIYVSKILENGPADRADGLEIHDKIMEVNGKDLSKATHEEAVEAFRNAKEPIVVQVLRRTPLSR
# LAP2, Q96RT1, sequence (Q96RT1 other isoform, or with tags, fused parts or gaps): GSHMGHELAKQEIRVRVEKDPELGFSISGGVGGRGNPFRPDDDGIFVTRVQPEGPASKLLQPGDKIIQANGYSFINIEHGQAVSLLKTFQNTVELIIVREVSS
# TJP1_2, Q07157, sequence (Q07157 181-274): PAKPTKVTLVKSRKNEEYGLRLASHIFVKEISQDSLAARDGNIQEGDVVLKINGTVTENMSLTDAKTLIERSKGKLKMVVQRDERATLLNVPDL
# PICK1, Q9NRD5, sequence (Q9NRD5 17-115): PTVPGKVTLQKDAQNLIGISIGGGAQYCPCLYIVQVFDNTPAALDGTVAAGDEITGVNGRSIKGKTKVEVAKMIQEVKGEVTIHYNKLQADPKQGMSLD
# MAGI2_4, Q86UL8, sequence (Q86UL8 772-865): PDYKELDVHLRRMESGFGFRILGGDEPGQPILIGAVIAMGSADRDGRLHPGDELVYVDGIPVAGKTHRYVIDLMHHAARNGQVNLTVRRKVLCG
# DLG1_2, Q12959, sequence (Q12959 314-412): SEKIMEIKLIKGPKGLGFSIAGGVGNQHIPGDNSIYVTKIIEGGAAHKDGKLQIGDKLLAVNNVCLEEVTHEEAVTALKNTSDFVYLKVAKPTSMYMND
# Inadl_10, Q8NI35, sequence (Q8NI35 1673-1763): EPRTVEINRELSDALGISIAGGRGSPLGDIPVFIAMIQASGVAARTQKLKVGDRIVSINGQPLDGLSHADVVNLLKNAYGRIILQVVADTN
# DLG4_3, P78352, sequence (P78352 306-403): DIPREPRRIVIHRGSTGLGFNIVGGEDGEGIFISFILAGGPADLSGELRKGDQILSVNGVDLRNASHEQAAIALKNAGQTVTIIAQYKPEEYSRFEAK
# TJP2_1, Q9UDY2, sequence (Q9UDY2 24-128): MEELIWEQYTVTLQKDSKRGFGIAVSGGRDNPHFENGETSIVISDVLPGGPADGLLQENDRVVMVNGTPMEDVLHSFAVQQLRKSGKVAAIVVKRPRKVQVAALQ
# ARHGEF12, Q9NZN5-2, sequence (Q9NZN5 other isoform, or with tags, fused parts or gaps): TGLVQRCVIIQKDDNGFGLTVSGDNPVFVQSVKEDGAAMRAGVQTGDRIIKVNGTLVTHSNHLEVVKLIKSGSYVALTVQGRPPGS
# DLG2_2, Q15700, sequence (Q15700 189-283): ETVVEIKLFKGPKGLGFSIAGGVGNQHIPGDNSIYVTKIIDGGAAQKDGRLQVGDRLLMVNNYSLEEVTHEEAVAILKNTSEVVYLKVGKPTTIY
# CASK, O14936, sequence (O14936 487-570): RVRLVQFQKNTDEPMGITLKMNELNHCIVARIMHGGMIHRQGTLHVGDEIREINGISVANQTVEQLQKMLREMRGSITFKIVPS
# MAGI3_2, Q5TCQ9, sequence (Q5TCQ9 398-503): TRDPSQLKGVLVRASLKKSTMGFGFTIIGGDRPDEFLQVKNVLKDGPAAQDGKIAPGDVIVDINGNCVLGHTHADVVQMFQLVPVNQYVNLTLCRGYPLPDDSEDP
pKd [1],pKd [2],pKd [3],pKd [4],pKd [5],pKd [6],pKd [7],pKd [8],pKd [9],pKd [10],pKd [11],pKd [12],pKd [13],pKd [14],pKd [15],pKd [16],pKd [17],pKd [18],pKd [19],pKd [20],Binder,other results
3.56,below the threshold,below the threshold,3.74,4.32,below the threshold,below the threshold,3.5,4.05,below the threshold,3.65,below the threshold,below the threshold,below the threshold,below the threshold,below the threshold,below the threshold,below the threshold,below the threshold,below the threshold,"KSRPENGTVC [TMEM178B, H3BS89]",pKd [21]: below the threshold; pKd [22]: below the threshold; pKd [23]: below the threshold; pKd [24]: below the threshold; pKd [25]: below the threshold; pKd [26]: 3.54
4.72,3.48,4.2,4.13,4.71,4.94,below the threshold,3.76,3.68,below the threshold,below the threshold,below the threshold,3.49,3.74,below the threshold,4.82,5.09,4.17,below the threshold,below the threshold,"TNSKQGETTV [FZD1, Q9UP38]",pKd [21]: below the threshold; pKd [22]: 4.37; pKd [23]: 3.63; pKd [24]: 4.06; pKd [25]: 3.61; pKd [26]: 4.64
below the threshold,below the threshold,below the threshold,below the threshold,below the threshold,below the threshold,below the threshold,below the threshold,below the threshold,below the threshold,4.18,below the threshold,below the threshold,below the threshold,below the threshold,below the threshold,below the threshold,below the threshold,below the threshold,below the threshold,"QQGLLPHSSC [TYRO3, Q06418]",pKd [21]: below the threshold; pKd [22]: below the threshold; pKd [23]: below the threshold; pKd [24]: below the threshold; pKd [25]: below the threshold; pKd [26]: below the threshold
3.94,below the threshold,below the threshold,below the threshold,3.67,below the threshold,below the threshold,below the threshold,below the threshold,below the threshold,5.17,below the threshold,below the threshold,3.86,below the threshold,below the threshold,below the threshold,4.25,below the threshold,below the threshold,"EAVTVESTSL [SLC22A11, Q9NSA0]",pKd [21]: below the threshold; pKd [22]: below the threshold; pKd [23]: below the threshold; pKd [24]: 4.43; pKd [25]: below the threshold; pKd [26]: below the threshold
below the threshold,3.5,below the threshold,below the threshold,below the threshold,5.24,below the threshold,3.84,below the threshold,below the threshold,3.93,below the threshold,3.57,3.48,below the threshold,below the threshold,below the threshold,below the threshold,below the threshold,4.25,"TFSRRPKTRV [CD226, Q15762]",pKd [21]: below the threshold; pKd [22]: below the threshold; pKd [23]: 3.57; pKd [24]: below the threshold; pKd [25]: below the threshold; pKd [26]: below the threshold
5.37,below the threshold,4.18,3.56,4.02,4.28,below the threshold,below the threshold,below the threshold,below the threshold,3.71,below the threshold,below the threshold,3.83,below the threshold,4.56,4.91,4.03,below the threshold,below the threshold,"IQISELETNV [SLC1A7, O00341]",pKd [21]: below the threshold; pKd [22]: 3.91; pKd [23]: below the threshold; pKd [24]: 4.03; pKd [25]: 4.5; pKd [26]: 4.66
